Key:
Human CD47-C33G (human) [1] = target: Human CD47-C33G (human) (UniProt Q08722); assay: SPR, IgG captured, CD47 in flow; exp 1
[2] = target: wild type human CD47 (Acro Biosystems, cat. no. CD7-H5227) (human) (UniProt Q08722); assay: SPR, IgG captured, CD47 in flow; exp 1
Human CD47-C33G (human) [3] = target: Human CD47-C33G (human) (UniProt Q08722); assay: SPR, IgG captured, CD47 in flow; exp 1; remark: listed apart in the source
[4] = target: wild type human CD47 (Acro Biosystems, cat. no. CD7-H5227) (human) (UniProt Q08722); assay: SPR, IgG captured, CD47 in flow; exp 1; remark: listed apart in the source
Human CD47-C33G (human) [5] = target: Human CD47-C33G (human) (UniProt Q08722); assay: SPR, IgG captured, CD47 in flow; exp 3; estimated, out of instrument limit
Human CD47-C33G (human) [6] = target: Human CD47-C33G (human) (UniProt Q08722); assay: SPR, IgG captured, CD47 in flow; exp 3
[7] = target: wild type human CD47 (Acro Biosystems, cat. no. CD7-H5227) (human) (UniProt Q08722); assay: SPR, IgG captured, CD47 in flow; exp 3
[8] = target: human CD47 on cells (SHP-77 tumor cells, human red blood cells, CCRF-CEM cells, human CD47 CHO-K1 stable cell line) (human) (UniProt Q08722); assay: cell-based or functional assay
[9] = target: human CD47 on cells (SHP-77 tumor cells, human red blood cells, CCRF-CEM cells, human CD47 CHO-K1 stable cell line) (human) (UniProt Q08722); assay: flow cytometry on human CD47 CHO-K1 cells; plateau not reached, not accurate
[10] = target: cynomolgus CD47 on CHO-K1 stable cell line (cynomolgus); assay: flow cytometry on cynomolgus CD47 CHO-K1 cells; plateau not reached, not accurate
Human CD47-C33G (human) [11] = target: Human CD47-C33G (human) (UniProt Q08722); assay: SPR, IgG captured, CD47 in flow; exp 1; estimated, out of instrument limit
Human CD47-C33G (human) [12] = target: Human CD47-C33G (human) (UniProt Q08722); assay: SPR, IgG captured, CD47 in flow; exp 2
[13] = target: wild type human CD47 (Acro Biosystems, cat. no. CD7-H5227) (human) (UniProt Q08722); assay: SPR, IgG captured, CD47 in flow; exp 2
[14] = target: human CD47 on cells (SHP-77 tumor cells, human red blood cells, CCRF-CEM cells, human CD47 CHO-K1 stable cell line) (human) (UniProt Q08722); assay: flow cytometry on SHP-77 cells
Human CD47-C33G (human) [15] = target: Human CD47-C33G (human) (UniProt Q08722); assay: SPR, IgG captured, CD47 in flow; exp 4
[16] = target: wild type human CD47 (Acro Biosystems, cat. no. CD7-H5227) (human) (UniProt Q08722); assay: SPR, IgG captured, CD47 in flow; exp 4
[17] = target: human CD47 on cells (SHP-77 tumor cells, human red blood cells, CCRF-CEM cells, human CD47 CHO-K1 stable cell line) (human) (UniProt Q08722); assay: flow cytometry on human RBCs
Human CD47-C33G (human) [18] = target: Human CD47-C33G (human) (UniProt Q08722); assay: SPR, IgG captured, CD47 in flow; exp 2; estimated, out of instrument limit
Human CD47-C33G (human) [19] = target: Human CD47-C33G (human) (UniProt Q08722); assay: SPR, IgG captured, CD47 in flow; exp 2; remark: listed apart in the source
[20] = target: wild type human CD47 (Acro Biosystems, cat. no. CD7-H5227) (human) (UniProt Q08722); assay: SPR, IgG captured, CD47 in flow; exp 2; remark: listed apart in the source

Sequence of cynomolgus CD47 on CHO-K1 stable cell line (cynomolgus) (chain, as listed by the source): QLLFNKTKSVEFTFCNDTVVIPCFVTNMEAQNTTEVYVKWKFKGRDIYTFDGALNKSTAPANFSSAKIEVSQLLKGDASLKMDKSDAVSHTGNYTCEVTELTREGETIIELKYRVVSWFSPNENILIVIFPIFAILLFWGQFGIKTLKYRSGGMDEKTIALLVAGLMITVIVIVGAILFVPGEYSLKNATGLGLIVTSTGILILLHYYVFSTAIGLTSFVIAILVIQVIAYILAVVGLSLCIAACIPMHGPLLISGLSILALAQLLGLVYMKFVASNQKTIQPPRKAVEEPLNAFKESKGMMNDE

B1: TJC4 positive control antibody (antibody, INN chains, looked up, V domains shown)
VH: EVQLVESGGGLVKPGGSLRLSCAASGLTFERAWMNWVRQAPGKGLEWVGRIKRKTDGETTDYAAPVKGRFSISRDDSKNTLYLQMNSLKTEDTAVYYCAGSNRAFDIWGQGTMVTVSS
VL: DIVMTQSPDSLAVSLGERATINCKSSQSVLYAGNNRNYLAWYQQKPGQPPKLLINQASTRASGVPDRFSGSGSGTEFTLIISSLQAEDVAIYYCQQYYTPPLAFGGGTKLEIK
Kd (Human CD47-C33G (human) [1]): 540 nM | koff (Human CD47-C33G (human) [1]): 0.09 s⁻¹ | kon (Human CD47-C33G (human) [1]): 170000 M⁻¹ s⁻¹ | Kd [2]: 4.4 nM | koff [2]: 0.0024 s⁻¹ | kon [2]: 550000 M⁻¹ s⁻¹ | kon (Human CD47-C33G (human) [3]): 190000 M⁻¹ s⁻¹ | Kd [4]: 4.5 nM | koff [4]: 0.0022 s⁻¹ | kon [4]: 500000 M⁻¹ s⁻¹ | Kd (Human CD47-C33G (human) [5]): > 630 nM | koff (Human CD47-C33G (human) [5]): > 0.1 s⁻¹ | kon (Human CD47-C33G (human) [6]): 160000 M⁻¹ s⁻¹ | Kd [7]: 4.7 nM | koff [7]: 0.0022 s⁻¹ | kon [7]: 460000 M⁻¹ s⁻¹ | CCRF-CEM phagocytosis EC50 [8]: 0.49 nM | CCRF-CEM phagocytosis, Phagocytosis (%) [8]: 68.6% | EC50 [9]: 5.7 nM | EC50 [10]: 9.7 nM | Kd (Human CD47-C33G (human) [11]): > 530 nM | koff (Human CD47-C33G (human) [11]): > 0.1 s⁻¹ | kon (Human CD47-C33G (human) [12]): 490000 M⁻¹ s⁻¹ | Kd [13]: 4.3 nM | koff [13]: 0.0024 s⁻¹ | kon [13]: 540000 M⁻¹ s⁻¹ | EC50 [14]: 2.8 nM | Fitted maximal MFI [14]: 25400 MFI | Kd (Human CD47-C33G (human) [15]): 600 nM | koff (Human CD47-C33G (human) [15]): 0.13 s⁻¹ | kon (Human CD47-C33G (human) [15]): 210000 M⁻¹ s⁻¹ | Kd [16]: 4.7 nM | koff [16]: 0.0018 s⁻¹ | kon [16]: 380000 M⁻¹ s⁻¹ | EC50 [17]: 4.3 nM | Fitted maximal MFI [17]: 21400 MFI | Kd (Human CD47-C33G (human) [18]): > 200 nM | Kd (Human CD47-C33G (human) [19]): 540 nM | koff (Human CD47-C33G (human) [19]): 0.09 s⁻¹ | kon (Human CD47-C33G (human) [19]): 170000 M⁻¹ s⁻¹ | Kd [20]: 4.4 nM | kon [20]: 550000 M⁻¹ s⁻¹
